Test system: KDM4A-I71AzF
Experiment: CASI: photo-crosslinking with HEK293T cell extracts, StrepTactin enrichment and LC-MS/MS proteomics;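 note: lysates from HEK293T cells pretreated with a KDM4 inhibitor to raise proteome methylation, affinity-purified after ±UV, gel-resolved, trypsin-digested, with exclusive unique peptides per protein averaged per condition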
Format: binding, human
Conditions: sheet "Final results but with 0.01"

Molecule | Fold change (+UV/-UV)
SYDM_HUMAN (protein, UniProt Q6PI48 48-645, looked up) Aspartate--tRNA ligase, …: VVRTNTCGELRSSHLGQEVTLCGWIQYRRQNTFLVLRDFDGLVQVIIPQDESAASVKKILCEAPVESVVQVSGTVISRPAGQENPKMPTGEIEIKVKTAELLNACKKLPFEIKNFVKKTEALRLQYRYLDLRSFQMQYNLRLRSQMVMKMREYLCNLHGFVDIETPTLFKRTPGGAKEFLVPSREPGKFYSLPQSPQQFKQLLMVGGLDRYFQVARCYRDEGSRPDRQPEFTQIDIEMSFVDQTGIQSLIEGLLQYSWPNDKDPVVVPFPTMTFAEVLATYGTDKPDTRFGMKIIDISDVFRNTEIGFLQDALSKPHGTVKAICIPEGAKYLKRKDIESIRNFAADHFNQEILPVFLNANRNWNSPVANFIMESQRLELIRLMETQEEDVVLLTAGEHNKACSLLGKLRLECADLLETRGVVLRDPTLFSFLWVVDFPLFLPKEENPRELESAHHPFTAPHPSDIHLLYTEPKKARSQHYDLVLNGNEIGGGSIRIHNAELQRYILATLLKEDVKMLSHLLQALDYGAPPHGGIALGLDRLICLVTGSPSIRDVIAFPKSFRGHDLMSNTPDSVPPEELKPYHIRVSKPTDSKAERAH | 1.2
TOP1_HUMAN (protein, UniProt P11387 2-765, looked up) DNA topoisomerase 1: SGDHLHNDSQIEADFRLNDSHKHKDKHKDREHRHKEHKKEKDREKSKHSNSEHKDSEKKHKEKEKTKHKDGSSEKHKDKHKDRDKEKRKEEKVRASGDAKIKKEKENGFSSPPQIKDEPEDDGYFVPPKEDIKPLKRPRDEDDADYKPKKIKTEDTKKEKKRKLEEEEDGKLKKPKNKDKDKKVPEPDNKKKKPKKEEEQKWKWWEEERYPEGIKWKFLEHKGPVFAPPYEPLPENVKFYYDGKVMKLSPKAEEVATFFAKMLDHEYTTKEIFRKNFFKDWRKEMTNEEKNIITNLSKCDFTQMSQYFKAQTEARKQMSKEEKLKIKEENEKLLKEYGFCIMDNHKERIANFKIEPPGLFRGRGNHPKMGMLKRRIMPEDIIINCSKDAKVPSPPPGHKWKEVRHDNKVTWLVSWTENIQGSIKYIMLNPSSRIKGEKDWQKYETARRLKKCVDKIRNQYREDWKSKEMKVRQRAVALYFIDKLALRAGNEKEEGETADTVGCCSLRVEHINLHPELDGQEYVVEFDFLGKDSIRYYNKVPVEKRVFKNLQLFMENKQPEDDLFDRLNTGILNKHLQDLMEGLTAKVFRTYNASITLQQQLKELTAPDENIPAKILSYNRANRAVAILCNHQRAPPKTFEKSMMNLQTKIDAKKEQLADARRDLKSAKADAKVMKDAKTKKVVESKKKAVQRLEEQLMKLEVQATDREENKQIALGTSKLNYLDPRITVAWCKKWGVPIEKIYNKTQREKFAWAIDMADEDYEF | 0
ACON_HUMAN (protein, UniProt Q99798 28-780, looked up) Aconitate hydratase, …: QRAKVAMSHFEPNEYIHYDLLEKNINIVRKRLNRPLTLSEKIVYGHLDDPASQEIERGKSYLRLRPDRVAMQDATAQMAMLQFISSGLSKVAVPSTIHCDHLIEAQVGGEKDLRRAKDINQEVYNFLATAGAKYGVGFWKPGSGIIHQIILENYAYPGVLLIGTDSHTPNGGGLGGICIGVGGADAVDVMAGIPWELKCPKVIGVKLTGSLSGWSSPKDVILKVAGILTVKGGTGAIVEYHGPGVDSISCTGMATICNMGAEIGATTSVFPYNHRMKKYLSKTGREDIANLADEFKDHLVPDPGCHYDQLIEINLSELKPHINGPFTPDLAHPVAEVGKVAEKEGWPLDIRVGLIGSCTNSSYEDMGRSAAVAKQALAHGLKCKSQFTITPGSEQIRATIERDGYAQILRDLGGIVLANACGPCIGQWDRKDIKKGEKNTIVTSYNRNFTGRNDANPETHAFVTSPEIVTALAIAGTLKFNPETDYLTGTDGKKFRLEAPDADELPKGEFDPGQDTYQHPPKDSSGQHVDVSPTSQRLQLLEPFDKWDGKDLEDLQILIKVKGKCTTDHISAAGPWLKFRGHLDNISNNLLIGAINIENGKANSVRNAVTQEFGPVPDTARYYKKHGIRWVVIGDENYGEGSSREHAALEPRHLGGRAIITKSFARIHETNLKKQGLLPLTFADPADYNKIHPVDKLTIQGLKDFTPGKPLKCIIKHPNGTQETILLNHTFNETQIEWFRAGSALNRMKELQQ | 0.4
HXK1_HUMAN (protein, UniProt P19367 1-917, looked up) Hexokinase-1: MIAAQLLAYYFTELKDDQVKKIDKYLYAMRLSDETLIDIMTRFRKEMKNGLSRDFNPTATVKMLPTFVRSIPDGSEKGDFIALDLGGSSFRILRVQVNHEKNQNVHMESEVYDTPENIVHGSGSQLFDHVAECLGDFMEKRKIKDKKLPVGFTFSFPCQQSKIDEAILITWTKRFKASGVEGADVVKLLNKAIKKRGDYDANIVAVVNDTVGTMMTCGYDDQHCEVGLIIGTGTNACYMEELRHIDLVEGDEGRMCINTEWGAFGDDGSLEDIRTEFDREIDRGSLNPGKQLFEKMVSGMYLGELVRLILVKMAKEGLLFEGRITPELLTRGKFNTSDVSAIEKNKEGLHNAKEILTRLGVEPSDDDCVSVQHVCTIVSFRSANLVAATLGAILNRLRDNKGTPRLRTTVGVDGSLYKTHPQYSRRFHKTLRRLVPDSDVRFLLSESGSGKGAAMVTAVAYRLAEQHRQIEETLAHFHLTKDMLLEVKKRMRAEMELGLRKQTHNNAVVKMLPSFVRRTPDGTENGDFLALDLGGTNFRVLLVKIRSGKKRTVEMHNKIYAIPIEIMQGTGEELFDHIVSCISDFLDYMGIKGPRMPLGFTFSFPCQQTSLDAGILITWTKGFKATDCVGHDVVTLLRDAIKRREEFDLDVVAVVNDTVGTMMTCAYEEPTCEVGLIVGTGSNACYMEEMKNVEMVEGDQGQMCINMEWGAFGDNGCLDDIRTHYDRLVDEYSLNAGKQRYEKMISGMYLGEIVRNILIDFTKKGFLFRGQISETLKTRGIFETKFLSQIESDRLALLQVRAILQQLGLNSTCDDSILVKTVCGVVSRRAAQLCGAGMAAVVDKIRENRGLDRLNVTVGVDGTLYKLHPHFSRIMHQTVKELSPKCNVSFLLSEDGSGKGAALITAVGVRLRTEASS | 1
SND1_HUMAN (protein, UniProt Q7KZF4 2-910, looked up) Staphylococcal nuclease …: ASSAQSGGSSGGPAVPTVQRGIIKMVLSGCAIIVRGQPRGGPPPERQINLSNIRAGNLARRAAATQPDAKDTPDEPWAFPAREFLRKKLIGKEVCFTIENKTPQGREYGMIYLGKDTNGENIAESLVAEGLATRREGMRANNPEQNRLSECEEQAKAAKKGMWSEGNGSHTIRDLKYTIENPRHFVDSHHQKPVNAIIEHVRDGSVVRALLLPDYYLVTVMLSGIKCPTFRREADGSETPEPFAAEAKFFTESRLLQRDVQIILESCHNQNILGTILHPNGNITELLLKEGFARCVDWSIAVYTRGAEKLRAAERFAKERRLRIWRDYVAPTANLDQKDKQFVAKVMQVLNADAIVVKLNSGDYKTIHLSSIRPPRLEGENTQDKNKKLRPLYDIPYMFEAREFLRKKLIGKKVNVTVDYIRPASPATETVPAFSERTCATVTIGGINIAEALVSKGLATVIRYRQDDDQRSSHYDELLAAEARAIKNGKGLHSKKEVPIHRVADISGDTQKAKQFLPFLQRAGRSEAVVEYVFSGSRLKLYLPKETCLITFLLAGIECPRGARNLPGLVQEGEPFSEEATLFTKELVLQREVEVEVESMDKAGNFIGWLHIDGANLSVLLVEHALSKVHFTAERSSYYKSLLSAEEAAKQKKEKVWAHYEEQPVEEVMPVLEEKERSASYKPVFVTEITDDLHFYVQDVETGTQLEKLMENMRNDIASHPPVEGSYAPRRGEFCIAKFVDGEWYRARVEKVESPAKIHVFYIDYGNREVLPSTRLGTLSPAFSTRVLPAQATEYAFAFIQVPQDDDARTDAVDSVVRDIQNTQCLLNVEHLSAGCPHVTLQFADSKGDVGLGLVKEGLVMVEVRKEKQFQKVITEYLNAQESAKSARLNLWRYGDFRADDADEFGYSR | 1.5
DC1I2_HUMAN (protein, UniProt Q13409 2-638, looked up) Cytoplasmic dynein 1 …: SDKSELKAELERKKQRLAQIREEKKRKEEERKKKETDQKKEAVAPVQEESDLEKKRREAEALLQSMGLTPESPIVFSEYWVPPPMSPSSKSVSTPSEAGSQDSGDGAVGSRTLHWDTDPSVLQLHSDSDLGRGPIKLGMAKITQVDFPPREIVTYTKETQTPVMAQPKEDEEEDDDVVAPKPPIEPEEEKTLKKDEENDSKAPPHELTEEEKQQILHSEEFLSFFDHSTRIVERALSEQINIFFDYSGRDLEDKEGEIQAGAKLSLNRQFFDERWSKHRVVSCLDWSSQYPELLVASYNNNEDAPHEPDGVALVWNMKYKKTTPEYVFHCQSAVMSATFAKFHPNLVVGGTYSGQIVLWDNRSNKRTPVQRTPLSAAAHTHPVYCVNVVGTQNAHNLISISTDGKICSWSLDMLSHPQDSMELVHKQSKAVAVTSMSFPVGDVNNFVVGSEEGSVYTACRHGSKAGISEMFEGHQGPITGIHCHAAVGAVDFSHLFVTSSFDWTVKLWTTKNNKPLYSFEDNADYVYDVMWSPTHPALFACVDGMGRLDLWNLNNDTEVPTASISVEGNPALNRVRWTHSGREIAVGDSEGQIVIYDVGEQIAVPRNDEWARFGRTLAEINANRADAEEEAATRIPA | 1
PNPT1_HUMAN (protein, UniProt Q8TCS8 46-783, looked up) Polyribonucleotide …: AVAVDLGNRKLEISSGKLARFADGSAVVQSGDTAVMVTAVSKTKPSPSQFMPLVVDYRQKAAAAGRIPTNYLRREIGTSDKEILTSRIIDRSIRPLFPAGYFYDTQVLCNLLAVDGVNEPDVLAINGASVALSLSDIPWNGPVGAVRIGIIDGEYVVNPTRKEMSSSTLNLVVAGAPKSQIVMLEASAENILQQDFCHAIKVGVKYTQQIIQGIQQLVKETGVTKRTPQKLFTPSPEIVKYTHKLAMERLYAVFTDYEHDKVSRDEAVNKIRLDTEEQLKEKFPEADPYEIIESFNVVAKEVFRSIVLNEYKRCDGRDLTSLRNVSCEVDMFKTLHGSALFQRGQTQVLCTVTFDSLESGIKSDQVITAINGIKDKNFMLHYEFPPYATNEIGKVTGLNRRELGHGALAEKALYPVIPRDFPFTIRVTSEVLESNGSSSMASACGGSLALMDSGVPISSAVAGVAIGLVTKTDPEKGEIEDYRLLTDILGIEDYNGDMDFKIAGTNKGITALQADIKLPGIPIKIVMEAIQQASVAKKEILQIMNKTISKPRASRKENGPVVETVQVPLSKRAKFVGPGGYNLKKLQAETGVTISQVDEETFSVFAPTPSAMHEARDFITEICKDDQEQQLEFGAVYTATITEIRDTGVMVKLYPNMTAVLLHNTQLDQRKIKHPTALGLEVGQEIQVKYFGRDPADGRMRLSRKVLQSPATTVVRTLNDRSSIVMGEPISQSSSNSQ | 0

Reference: article PMC10540216, “Activity Guided Azide-methyllysine Photo-trapping for Substrate Profiling of Lysine Demethylases” (Journal of the American Chemical Society, 2023)
